This is an account of results in PMC2722044.

In general, Kd refers to the equilibrium constant for the complex coming apart. Low readings indicate higher affinity, high ones lower affinity.

Assay [1] concerns the target VLRB.2D, lamprey variable lymphocyte receptor B specific for hen egg white lysozyme (lamprey). The experiment in a line: ITC.
Assay [2] addresses VLRB.2DMut13, in vitro affinity-matured variant of VLRB.2D (lamprey). The assay can be described thus: ITC. For orientation: In ITC the heat of successive injections is recorded.

“hen egg white lysozyme (from UniProt P00698 19-147) (enzyme)”: the figures for the Kd in assay [1] and in assay [2] were 430 nM and 34 nM, respectively.
